Here are results for one molecule from paper PMC1669725.

The term Kd denotes the constant that tells how readily two partners part at equilibrium. Higher therefore signals a looser complex.

The data set addresses Sp1 zinc-finger DNA-binding domain (truncated Sp1) (UniProt P08047 619-774). Description: fluorescence correlation spectroscopy.

Chain of Sp1 zinc-finger DNA-binding domain (truncated Sp1) (P08047 619-774): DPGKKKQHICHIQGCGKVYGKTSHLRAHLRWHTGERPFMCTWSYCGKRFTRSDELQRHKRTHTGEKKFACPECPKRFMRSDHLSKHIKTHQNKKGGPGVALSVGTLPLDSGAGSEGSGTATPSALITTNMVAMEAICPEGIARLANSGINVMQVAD

B1: HIV LTR Sp1 site 23 bp (dsDNA)
DNA 1: ACTTTCCAGGGAGGCGTGGCCTG
DNA 2: CAGGCCACGCCTCCCTGGAAAGT
In the case of B1, binding was characterised by a dissociation constant (Kd) of 32 ± 2 nM.
